According to patent US20240350441A1, “PHARMACEUTICAL FORMULATION AND A PROCESS FOR ITS PREPARATION” (SAVA HEALTHCARE LTD, priority 2021, published 2024):

Tests used:
Format in all cases: in vivo, Female Swiss Albino mice
[1] = system: Cyclophosphamide induced hepatotoxicity; assay: Cyclophosphamide induced hepatotoxicity, AST/ALT (Example 9); settings: for ALT (alanine aminotransferase) / AST (aspartate aminotransferase): day 10, after 5 days treatment from day 5, GCSF 2 μg
Description: (§1) Female Swiss Albino mice were randomized into different groups based on body weight as follows: • Group 1—cyclophosphamide control (CP control), • Group 2—pure Picroside 1 treated, • Group 3—the degraded Picroside 1 with salt and • Group 4—GCSF (granulocyte colony stimulating factor) treated groups. • On day 0, blood was withdrawn from all animals for basal hematological parameters. The animals of all the groups were injected with 150 mg/kg of cyclophosphamide through intraperitoneal route (i.p.). On Day 3, blood was withdrawn from all animals for total and differential count (neutrophils, lymphocytes, and monocytes). The animals were dosed with one additional dose of 100 mg/kg cyclophosphamide on Day 4. From day 5, the animals were administered with respective treatments through oral route in water as vehicle while group 1 was administered with placebo tablets for 5 consecutive days. On day 10, blood was withdrawn from all animals for Total and differential count (neutrophils, lymphocytes, and monocytes), WBCs, Platelets and AST (aspartate aminotransferase) and ALT (alanine aminotransferase).

[2] = system: Cyclophosphamide induced neutropenia; assay: Cyclophosphamide induced neutropenia, hematological changes (Example 9)
Description: • 1. To induce neutropenia in mice by administration of cyclophosphamide. • 2. To determine the effect of treatments of pure Picroside 1 and the degraded Picroside 1 with salt on total WBC count, neutrophils, monocyte, lymphocytes and platelet count. • 3. To compare the effect of pure Picroside 1 and the degraded Picroside 1 with salt standard 2 μg G-CSF.
Cyclophosphamide was procured from Sigma Aldrich and G-CSF was procured from marketed formulation of Lupin limited, Lupifil (300). Female Swiss Albino mice weighing between 25-27 g were procured from National Institute of Biosciences, Pune.
as §1

[3] = system: Cyclophosphamide induced hepatotoxicity and renal changes; assay: Hepatic and renal parameters in cyclophosphamide induced neutropenia (Example 10); settings: for BUN (blood urea nitrogen) / SGOT Serum glutamic oxaloacetic transaminase / SGPT (Serum glutamic pyruvic transaminase) / Serum Creatinine / Uric acid: day 10, G-CSF 2 μg s.c., others 1 tablet per animal per day for 5 days
Description: (§2) • 1. To induce neutropenia by administration of cyclophosphamide. • 2.
(§3) Materials: Female Swiss Albino mice weighing between 25-27 g was procured from Global Bioresearch Solutions Pvt Ltd., Pune.
(§4) On day 0, blood was withdrawn from all animals for basal hematological parameters. All the groups of animals except placebo group were injected with 150 mg/kg of cyclophosphamide through intraperitoneal route (i.p.), while group 1 was injected with water for injection, i.p. On Day 3, blood was withdrawn from all animals for Total and differential count (neutrophils, lymphocytes, and monocytes). The animals of group 2 to 7 were dosed with one additional dose of 100 mg/kg cyclophosphamide on Day 4. […] The cyclophosphamide control group was injected with water for injection from day 5 to day 9. On day 10, blood was withdrawn from all animals for total and differential count (neutrophils, lymphocytes, and monocytes), platelets, liver parameters AST (aspartate aminotransferase), ALT (alanine aminotransferase), and renal parameters—serum creatinine, blood urea nitrogen and uric acid.
(§5) • Pure Picroside 1—1 tablet was dissolved in 0.1 ml of sterile water for injection and 0.1 ml was injected as subcutaneous injection. • The degraded Picroside 1 without salt (cinnamic acid of the present disclosure)—1 tablet was dissolved in 0.1 ml of sterile water for injection and 0.1 ml was injected as subcutaneous injection. • The Cinnamic acid low dose (0.6 mg/tablet) treated tablet was dissolved in 0.1 ml of sterile water for injection and 0.1 ml was injected as subcutaneous injection. • The Cinnamic acid high dose treated (6 mg/tablet) tablet was dissolved in 0.1 ml of sterile water for injection and 0.1 ml was injected as subcutaneous injection.

[4] = system: Cyclophosphamide induced neutropenia; assay: Cyclophosphamide induced neutropenia, hematological parameters (Example 10)
Description: as §2, §3, §4, §5

[5] = compared to cyclophosphamide control group, Example 9
[6] = Day 0, basal, before cyclophosphamide
[7] = Day 3, after cyclophosphamide 150 mg/kg i.p., before treatment
[8] = Day 10, after 5 days treatment from day 5, GCSF 2 μg
[9] = Day 0, basal, G-CSF 2 μg, Picroside tablets groups
[10] = Day 3, after cyclophosphamide, before treatment, G-CSF 2 μg, Picroside tablets groups
[11] = Day 10, treated day 5 for 5 days, G-CSF 2 μg s.c., others 1 tablet per animal per day
[12] = vs CP control, cinnamic acid at both 0.6 mg/tablet low dose and 6 mg/tablet high dose
[13] = vs CP control, day 10, cinnamic acid at both 0.6 mg/tablet low dose and 6 mg/tablet high dose

## O=C(/C=C/c1ccccc1)OC[C@H]1O[C@@H](O[C@@H]2OC=C[C@H]3[C@H](O)[C@@H]4O[C@]4(CO)[C@@H]23)[C@H](O)[C@@H](O)[C@@H]1O [Pure Picroside 1, Picroside 1]
[1]; [5]
  Effect on ALT: significant reversal (p<0.001)
  Effect on AST: significant (p<0.001) decrease in AST
[1]
  ALT (alanine aminotransferase): 37.32 ± 0.66 IU/L
  AST (aspartate aminotransferase): 43.66 ± 2.68 IU/L
[2]; [6]
  % Lymphocytes: 40.32 ± 1.56%
  % Monocytes: 7.32 ± 0.32^ %
  % Neutrophils: 43 ± 0.68%
  Platelet Count: 741600 ± 3476 per cu · mm of blood
  WBC Count: 7410 ± 414.90 per cu · mm of blood
[2]; [7]
  % Lymphocytes: 80.00 ± 1.92%
  % Monocytes: 1.50 ± 0.34^ %
  % Neutrophils: 7 ± 0.92%
  Platelet Count: 647900 ± 26900 per cu · mm of blood
  WBC Count: 1562 ± 145.90 per cu · mm of blood
[2]; [8]
  % Lymphocytes: 72.00 ± 1.46 %
  % Monocytes: 4.50 ± 0.34 %
  % Neutrophils: 12.66 ± 0.66 %
  Platelet Count: 653300 ± 26550 per cu · mm of blood
  WBC Count: 4380 ± 333.30 per cu · mm of blood
[2]; [5]
  Effect on % lymphocytes: significant (p<0.01) reduction in % lymphocytes
  Effect on % monocytes: significantly reversed
  Effect on platelet count: improved the platelet count significantly (p<0.001)
  Effect on total WBC count: significantly (p<0.001) reversed the cyclophosphamide induced decrease in WBC count
[2]; compared to cyclophosphamide/placebo control group, Example 9
  Effect on % neutrophil: significantly (p<0.01) alleviated the cyclophosphamide-induced neutropenia
[3]
  BUN (blood urea nitrogen): 9.483 mmol/L
  SGOT Serum glutamic oxaloacetic transaminase: 25.67 IU/L
  SGPT (Serum glutamic pyruvic transaminase): 28.5 IU/L
  Serum Creatinine: 46.8 µM
  Uric acid: 30.00 mg/L
[3]; inference from table 8B, as compared to GCSF
  Hepatic and renal parameters in neutropenic animal model: improved hepatic and renal parameters
[4]; [9]
  % Lymphocytes: 44.33%
  % Monocytes: 6.00%
  % Neutrophils: 41.00%
  No of Platelets: 735700 per cu · mm of blood
  Total WBC Count: 7301 per cu · mm of blood
[4]; [10]
  % Lymphocytes: 84%
  % Monocytes: 1.50%
  % Neutrophils: 6.50%
  No of Platelets: 631700 per cu · mm of blood
  Total WBC Count: 2365 per cu · mm of blood
[4]; [11]
  % Lymphocytes: 58.67%
  % Monocytes: 5.00%
  % Neutrophils: 28.33%
  No of Platelets: 626800 per cu · mm of blood
  Total WBC Count: 3674 per cu · mm of blood
[4]; inference from table 8A
  Anti-neutropenic activity (words): shows better anti-neutropenic activity

B1: GCSF: glycoprotein that stimulates the bone marrow to produce granulocytes and stem cells; marketed formulation of Lupin limited (protein, UniProt P09919 31-207, looked up)
Granulocyte …: TPLGPASSLPQSFLLKCLEQVRKIQGDGAALQEKLVSECATYKLCHPEELVLLGHSLGIPWAPLSSCPSQALQLAGCLSQLHSGLFLYQGLLQALEGISPELGPTLDTLQLDVADFATTIWQQMEELGMAPALQPTQGAMPAFASAFQRRAGGVLVASHLQSFLEVSYRVLRHLAQP
modifications: filgrastim (Lupifil)
notes: glycoprotein that stimulates the bone marrow to produce granulocytes and stem cells; marketed formulation of Lupin limited
[1]; [5]
  Effect on AST: significant (p<0.001) reduction in AST
[1]
  ALT (alanine aminotransferase): 36.16 ± 0.70 IU/L
  AST (aspartate aminotransferase): 45.16 ± 2.72 IU/L
[2]; [6]
  % Lymphocytes: 40.00 ± 3.22%
  % Monocytes: 7.32 ± 0.42%
  % Neutrophils: 42.16 ± 1.74%
  Platelet Count: 732400 ± 7528 per cu · mm of blood
  WBC Count: 7438 ± 626.20 per cu · mm of blood
[2]; [7]
  % Lymphocytes: 82.50 ± 1.40%
  % Monocytes: 1.32 ± 0.22%
  % Neutrophils: 7.16 ± 0.48%
  Platelet Count: 637100 ± 38470 per cu · mm of blood
  WBC Count: 1580 ± 235.00 per cu · mm of blood
[2]; [8]
  % Lymphocytes: 59.32 ± 2.24 %
  % Monocytes: 5.66 ± 0.48 %
  % Neutrophils: 26.00 ± 1.66 %
  Platelet Count: 690300 ± 15510 per cu · mm of blood
  WBC Count: 4518 ± 406.00 per cu · mm of blood
[2]; [5]
  Effect on % lymphocytes: reversed cyclophosphamide-induced lymphocyte recruitment significantly (p<0.001)
  Effect on platelet count: significant increase in platelet count
  Effect on total WBC count: significantly (p<0.001) reversed the cyclophosphamide induced decrease in WBC count
[3]
  BUN (blood urea nitrogen): 9.633 mmol/L
  SGOT Serum glutamic oxaloacetic transaminase: 32.17 IU/L
  SGPT (Serum glutamic pyruvic transaminase): 34.33 IU/L
  Serum Creatinine: 44.5 µM
  Uric acid: 26.33 mg/L
[3]; [12]
  Effect on BUN level: significant (p<0.001) decrease in BUN level
  Effect on SGOT level: significant (p<0.001) reduction in SGOT
  Effect on serum creatinine level: significant (p<0.001) reduction in creatinine level
  Effect on uric acid level: significant decrease in uric acid levels (p<0.001)
[4]; [9]
  % Lymphocytes: 45.5%
  % Monocytes: 6.00%
  % Neutrophils: 41.33%
  No of Platelets: 752200 per cu · mm of blood
  Total WBC Count: 7255 per cu · mm of blood
[4]; [10]
  % Lymphocytes: 83.5%
  % Monocytes: 1.833%
  % Neutrophils: 6.667%
  No of Platelets: 645800 per cu · mm of blood
  Total WBC Count: 2617 per cu · mm of blood
[4]; [11]
  % Lymphocytes: 50.17%
  % Monocytes: 5.167%
  % Neutrophils: 36.67%
  No of Platelets: 674900 per cu · mm of blood
  Total WBC Count: 6030 per cu · mm of blood
[4]; [13]
  Effect on % lymphocytes: significant (p<0.001) decrease in % lymphocytes
  Effect on % monocytes: significantly (p<0.001) reversed
  Effect on platelet count: significant (p<0.05) increase in platelet count
  Effect on total WBC count: significantly (p<0.001) reversed the cyclophosphamide induced decrease in WBC count
